What was measured:
Experiment in all cases: co-purification after bacterial coexpression, molar ratio by rpHPLC; (Ca2+)4-CaM copurified with His-GST-tagged FGF NTD fragments; complexes separated on a C-18 column, ratio from peak areas at 220 nm
[1] = biological target: FGF13ANTD (FGF13A N-terminal domain, aa 1-66) (human) (UniProt Q92913)
[2] = biological target: FGF14ANTD (FGF14A N-terminal domain, aa 1-68) (human) (UniProt Q92915)
[3] = biological target: FGF11ANTD (FGF11A N-terminal domain, aa 1-68) (human) (UniProt Q92914)
Chain of FGF11ANTD (FGF11A N-terminal domain, aa 1-68) (human) (Q92914 other isoform, or with tags, fused parts or gaps): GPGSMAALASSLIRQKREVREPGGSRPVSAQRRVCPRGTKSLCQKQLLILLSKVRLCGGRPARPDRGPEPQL

[4] = biological target: FGF12ANTD (FGF12A N-terminal domain, aa 1-70) (human) (UniProt P61328)
Chain of FGF12ANTD (FGF12A N-terminal domain, aa 1-70) (human) (P61328 other isoform, or with tags, fused parts or gaps): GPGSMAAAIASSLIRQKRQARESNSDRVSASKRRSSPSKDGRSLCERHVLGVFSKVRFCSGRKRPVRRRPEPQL

Chain of FGF13ANTD (FGF13A N-terminal domain, aa 1-66) (human) (Q92913 other isoform, or with tags, fused parts or gaps): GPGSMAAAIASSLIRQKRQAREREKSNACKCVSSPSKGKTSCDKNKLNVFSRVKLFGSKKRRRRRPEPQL
Chain of FGF14ANTD (FGF14A N-terminal domain, aa 1-68) (human) (Q92915 other isoform, or with tags, fused parts or gaps): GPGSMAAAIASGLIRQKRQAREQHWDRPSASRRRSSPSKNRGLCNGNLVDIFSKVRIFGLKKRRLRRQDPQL

stoichiometry N ((Ca2+)4-CaM per FGF NTD) [1]: 1
stoichiometry N ((Ca2+)4-CaM per FGF NTD) [2]: 1
stoichiometry N ((Ca2+)4-CaM per FGF NTD) [3]: 1
stoichiometry N ((Ca2+)4-CaM per FGF NTD) [4]: 1
Substance: calmodulin, wild type, full-length (aa 1-148) (from UniProt P0DP23 1-149) (natural protein)

Source: article PMC8059062
